In article PMC6555819, “Comprehensive study of nuclear receptor DNA binding provides a revised framework for understanding receptor specificity” one finds binding signal data, which are given here for 20 molecules.

Common to all, as to test: no ligand; PBM; 270 nM : 90 nM RXRa; PBS pH 7.4, 2% milk, 0.02% Triton X-100, 1 mM DTT, BSA, 0.4 mg/ml salmon testes DNA
Series [1] deals with RARb:RXRa (Homo sapiens, UniProt P10826;P19793 full;full). As to conditions: tags: His kept;His cleaved; copies: 1;1; label: surface-attached array probe. An outline of the steps:
(§1)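 Binding z-scores were set against random background probes. The data came from custom Agilent 4×180K protein-binding microarrays carrying double-stranded probes with 34-nt variable regions, incubated 1 h with ligand-free nuclear receptor dimers. Partner-specific antibodies detected binding, and scanned fluorescence was regression-normalized.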

The target in series [2] is PPARa:RXRa (Homo sapiens, UniProt Q07869;P19793 full;full). As to conditions: tags: GST kept;His cleaved; copies: 1;1; label: surface-attached array probe. The method, boiled down: as §1
Series [3] concerns the target RARg:RXRa (Homo sapiens, UniProt P13631;P19793 full;full). The note with it: tags: His kept;His cleaved; copies: 1;1; label: surface-attached array probe. An outline of the steps:
as §1

Series [4] deals with FXR:RXRa (Homo sapiens, UniProt Q96RI1;P19793 full;full). The note with it: tags: His kept;His cleaved; copies: 1;1; label: surface-attached array probe. An outline of the steps:
as §1

Sequence of RARb:RXRa (P10826 whole entry, chain 1 of 2): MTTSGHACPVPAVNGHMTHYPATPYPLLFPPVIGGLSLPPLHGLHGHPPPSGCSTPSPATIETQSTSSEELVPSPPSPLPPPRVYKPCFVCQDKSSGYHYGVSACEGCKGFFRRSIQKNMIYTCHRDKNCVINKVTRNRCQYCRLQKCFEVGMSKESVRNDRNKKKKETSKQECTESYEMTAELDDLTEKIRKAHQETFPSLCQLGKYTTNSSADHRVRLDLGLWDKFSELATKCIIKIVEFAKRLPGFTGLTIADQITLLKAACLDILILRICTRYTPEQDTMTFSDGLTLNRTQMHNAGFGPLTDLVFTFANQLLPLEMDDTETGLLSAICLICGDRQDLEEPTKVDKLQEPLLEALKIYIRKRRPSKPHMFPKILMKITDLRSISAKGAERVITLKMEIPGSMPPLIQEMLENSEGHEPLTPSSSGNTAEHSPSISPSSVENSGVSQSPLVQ
Sequence of RARb:RXRa (P19793 whole entry, chain 2 of 2): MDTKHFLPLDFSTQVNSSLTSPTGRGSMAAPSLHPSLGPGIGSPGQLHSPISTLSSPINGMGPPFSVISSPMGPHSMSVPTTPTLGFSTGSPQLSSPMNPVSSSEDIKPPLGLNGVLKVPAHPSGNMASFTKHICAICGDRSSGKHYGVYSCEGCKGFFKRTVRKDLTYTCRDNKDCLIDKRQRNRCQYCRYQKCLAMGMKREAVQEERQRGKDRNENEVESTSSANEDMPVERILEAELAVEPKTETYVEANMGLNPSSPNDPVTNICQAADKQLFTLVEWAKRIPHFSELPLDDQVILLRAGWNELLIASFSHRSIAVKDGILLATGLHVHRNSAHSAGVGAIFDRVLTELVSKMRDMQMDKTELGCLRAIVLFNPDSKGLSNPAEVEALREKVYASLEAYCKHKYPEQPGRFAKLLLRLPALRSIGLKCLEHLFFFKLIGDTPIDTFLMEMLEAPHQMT
Sequence of RARg:RXRa (P13631 whole entry, chain 1 of 2): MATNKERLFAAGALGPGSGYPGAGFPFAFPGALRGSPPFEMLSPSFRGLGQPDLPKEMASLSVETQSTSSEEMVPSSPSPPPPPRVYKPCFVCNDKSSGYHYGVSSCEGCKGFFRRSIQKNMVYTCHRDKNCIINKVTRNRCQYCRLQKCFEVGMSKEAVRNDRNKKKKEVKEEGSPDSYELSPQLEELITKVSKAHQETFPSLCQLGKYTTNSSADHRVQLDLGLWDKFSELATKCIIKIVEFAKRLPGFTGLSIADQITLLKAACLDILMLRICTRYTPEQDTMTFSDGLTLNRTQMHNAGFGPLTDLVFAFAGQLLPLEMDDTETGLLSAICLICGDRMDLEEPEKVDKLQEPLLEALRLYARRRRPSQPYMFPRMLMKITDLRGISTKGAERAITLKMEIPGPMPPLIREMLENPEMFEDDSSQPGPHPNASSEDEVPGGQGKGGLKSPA
Sequence of RARg:RXRa (P19793 whole entry, chain 2 of 2): as the sequence (P19793 whole entry, chain 2 of 2) above
Sequence of PPARa:RXRa (Q07869 whole entry, chain 1 of 2): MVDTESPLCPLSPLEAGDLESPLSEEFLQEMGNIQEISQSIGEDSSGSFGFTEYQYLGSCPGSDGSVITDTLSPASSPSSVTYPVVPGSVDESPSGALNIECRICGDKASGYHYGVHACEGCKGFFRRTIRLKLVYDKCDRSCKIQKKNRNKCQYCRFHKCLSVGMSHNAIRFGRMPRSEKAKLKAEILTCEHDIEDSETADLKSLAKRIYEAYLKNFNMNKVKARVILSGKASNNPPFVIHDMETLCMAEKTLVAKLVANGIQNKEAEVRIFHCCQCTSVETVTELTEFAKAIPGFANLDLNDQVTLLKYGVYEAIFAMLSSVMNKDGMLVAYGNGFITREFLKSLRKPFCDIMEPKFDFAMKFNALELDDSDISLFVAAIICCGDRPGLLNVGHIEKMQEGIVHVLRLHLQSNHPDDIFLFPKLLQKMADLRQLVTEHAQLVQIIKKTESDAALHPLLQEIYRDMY
Sequence of PPARa:RXRa (P19793 whole entry, chain 2 of 2): as the sequence (P19793 whole entry, chain 2 of 2) above
Sequence of FXR:RXRa (Q96RI1 whole entry, chain 1 of 2): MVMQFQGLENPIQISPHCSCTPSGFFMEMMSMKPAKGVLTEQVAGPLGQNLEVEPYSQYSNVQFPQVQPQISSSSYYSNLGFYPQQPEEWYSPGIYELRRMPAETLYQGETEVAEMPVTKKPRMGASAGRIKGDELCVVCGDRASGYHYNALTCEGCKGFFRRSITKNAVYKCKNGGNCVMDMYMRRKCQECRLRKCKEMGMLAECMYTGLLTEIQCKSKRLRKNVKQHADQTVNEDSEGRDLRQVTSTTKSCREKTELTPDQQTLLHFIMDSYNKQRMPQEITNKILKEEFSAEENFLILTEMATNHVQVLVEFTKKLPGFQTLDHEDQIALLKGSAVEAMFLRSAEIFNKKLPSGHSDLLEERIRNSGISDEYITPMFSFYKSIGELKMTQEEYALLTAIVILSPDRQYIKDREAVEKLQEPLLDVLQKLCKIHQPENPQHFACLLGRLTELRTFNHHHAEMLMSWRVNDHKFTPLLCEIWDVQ
Sequence of FXR:RXRa (P19793 whole entry, chain 2 of 2): as the sequence (P19793 whole entry, chain 2 of 2) above

B1: NRC3_random_hg19_440_o1 (dsDNA)
DNA 1: GCGAAGGAGTTCTTATCTGGCCAGTTCCCATCCTGTGCGATTGACAGCGTAGAATGAAGG
DNA 2: CCTTCATTCTACGCTGTCAATCGCACAGGATGGGAACTGGCCAGATAAGAACTCCTTCGC
With B1, the values for the binding signal in series [1], in series [2] and in series [3] were -0.36 PBM z-score against 500 random probes, -0.35 PBM z-score against 500 random probes and -0.83 PBM z-score against 500 random probes, respectively.

B2: NRC3_random_hg19_268_o1 (dsDNA)
DNA 1: GCTGTTCTTTGGCAGTCTAGAGAATCAGAAGAGCAAGCGATTGACAGCGTAGAATGAAGG
DNA 2: CCTTCATTCTACGCTGTCAATCGCTTGCTCTTCTGATTCTCTAGACTGCCAAAGAACAGC
Consider B2, for which the binding signal in series [1] was -1.08 PBM z-score against 500 random probes.

B3: NRC3_wobSeed1_DR0_C7A_o1 (dsDNA)
DNA 1: GCCAAAATAGGTCAAGGTCAAAGTCGGTTTGTGCCAGCGATTGACAGCGTAGAATGAAGG
DNA 2: CCTTCATTCTACGCTGTCAATCGCTGGCACAAACCGACTTTGACCTTGACCTATTTTGGC
As to B3, the binding signal in series [1] was 5.5 PBM z-score against 500 random probes; in series [2] it was 6.51 PBM z-score against 500 random probes.

B4: NRC3_wobSeed87_DR3_G10A_o1 (dsDNA)
DNA 1: GCCGAACTAAGTCATCCAGGACAGTGAATACATTGAGCGATTGACAGCGTAGAATGAAGG
DNA 2: CCTTCATTCTACGCTGTCAATCGCTCAATGTATTCACTGTCCTGGATGACTTAGTTCGGC
With B4, the binding signal is 0.37 PBM z-score against 500 random probes in series [1] and 0.43 PBM z-score against 500 random probes in series [3].

B5: NRC3_random_hg19_141_o1 (dsDNA)
DNA 1: GCATTCTACCACTTCTTGCACCTAGTGCTGCTGTTCGCGATTGACAGCGTAGAATGAAGG
DNA 2: CCTTCATTCTACGCTGTCAATCGCGAACAGCAGCACTAGGTGCAAGAAGTGGTAGAATGC
Consider B5, for which the figures for the binding signal in series [1] and in series [2] were 0.19 PBM z-score against 500 random probes and 0.17 PBM z-score against 500 random probes, respectively.

B6: NRC3_random_hg19_306_o1 (dsDNA)
DNA 1: GCAGAGCCCACTTCACTTCCTCAGAAACAGCCCTCCGCGATTGACAGCGTAGAATGAAGG
DNA 2: CCTTCATTCTACGCTGTCAATCGCGGAGGGCTGTTTCTGAGGAAGTGAAGTGGGCTCTGC
On to B6, for which the binding signal in series [1] was -0.38 PBM z-score against 500 random probes; in series [2], -0.34 PBM z-score against 500 random probes.

B7: NRC3_random_hg19_482_o1 (dsDNA)
DNA 1: GCCATCCTGTAAGACACTTCCTCTAAGAAATGGCTAGCGATTGACAGCGTAGAATGAAGG
DNA 2: CCTTCATTCTACGCTGTCAATCGCTAGCCATTTCTTAGAGGAAGTGTCTTACAGGATGGC
B7: the figures for the binding signal in series [1] and in series [3] were -0.03 PBM z-score against 500 random probes and 0.13 PBM z-score against 500 random probes, respectively.

B8: NRC3_random_hg19_52_o1 (dsDNA)
DNA 1: GCCCAGGAGCAGTGGCTCACGCCTGTAATCCCAGCAGCGATTGACAGCGTAGAATGAAGG
DNA 2: CCTTCATTCTACGCTGTCAATCGCTGCTGGGATTACAGGCGTGAGCCACTGCTCCTGGGC
Take B8: the binding signal in series [1] is -0.55 PBM z-score against 500 random probes; in series [2] it was -0.74 PBM z-score against 500 random probes.

B9: NRC3_random_hg19_437_o1 (dsDNA)
DNA 1: GCCGTGTTGGCAGGTGCCTGTACTCTCAGCTACTCGGCGATTGACAGCGTAGAATGAAGG
DNA 2: CCTTCATTCTACGCTGTCAATCGCCGAGTAGCTGAGAGTACAGGCACCTGCCAACACGGC
Take B9: the binding signal is -0.44 PBM z-score against 500 random probes in series [1] and -0.58 PBM z-score against 500 random probes in series [2].

B10: NRC3_wobSeed69_DR2_G10T_o1 (dsDNA)
DNA 1: GCAGTCAAATTTCACTAGGTAACGTAAGATTCAGCTGCGATTGACAGCGTAGAATGAAGG
DNA 2: CCTTCATTCTACGCTGTCAATCGCAGCTGAATCTTACGTTACCTAGTGAAATTTGACTGC
With B10, the binding signal in series [1] is 0.27 PBM z-score against 500 random probes; in series [2] it was 0.35 PBM z-score against 500 random probes.

B11: NRC3_wobSeed4_DR0_A20T_o1 (dsDNA)
DNA 1: GCCCTACTGGGCCAAGGTCTTTGATCAGTCAAAGCAGCGATTGACAGCGTAGAATGAAGG
DNA 2: CCTTCATTCTACGCTGTCAATCGCTGCTTTGACTGATCAAAGACCTTGGCCCAGTAGGGC
As to B11, the binding signal is 0.33 PBM z-score against 500 random probes in series [1] and 0.29 PBM z-score against 500 random probes in series [2].

B12: NRC3_wobSeed13_DR0_A15C_o1 (dsDNA)
DNA 1: GCCGTCCAAGGTCACGGTCAGTGAAAGAGACTCGAAGCGATTGACAGCGTAGAATGAAGG
DNA 2: CCTTCATTCTACGCTGTCAATCGCTTCGAGTCTCTTTCACTGACCGTGACCTTGGACGGC
B12: the binding signal in series [1] was 5.97 PBM z-score against 500 random probes; in series [4], 8.3 PBM z-score against 500 random probes.

B13: NRC3_random_hg19_291_o1 (dsDNA)
DNA 1: GCGAGCAAAGGGACTTCTTAGATGGTGGTGGGCAAGGCGATTGACAGCGTAGAATGAAGG
DNA 2: CCTTCATTCTACGCTGTCAATCGCCTTGCCCACCACCATCTAAGAAGTCCCTTTGCTCGC
As to B13, in series [1], the binding signal is -0.49 PBM z-score against 500 random probes.

B14: NRC3_wobSeed23_DR0_G12T_o1 (dsDNA)
DNA 1: GCGGAACGAGGTCAAGTTGATAGCAGAGTTTGATGGGCGATTGACAGCGTAGAATGAAGG
DNA 2: CCTTCATTCTACGCTGTCAATCGCCCATCAAACTCTGCTATCAACTTGACCTCGTTCCGC
Take B14: the binding signal in series [1] is 5.45 PBM z-score against 500 random probes; in series [4] it was 8.18 PBM z-score against 500 random probes.

B15: NRC3_random_hg19_411_o1 (dsDNA)
DNA 1: GCATTGAGCAGGTGTTGATTACAAATGAGATGTTTCGCGATTGACAGCGTAGAATGAAGG
DNA 2: CCTTCATTCTACGCTGTCAATCGCGAAACATCTCATTTGTAATCAACACCTGCTCAATGC
B15: the binding signal in series [1] was 0 PBM z-score against 500 random probes; in series [2] it was 0.03 PBM z-score against 500 random probes.

B16: NRC3_random_hg19_72_o1 (dsDNA)
DNA 1: GCTCCCAACTAGCTGGAACTACAGGCACCTGCCACCGCGATTGACAGCGTAGAATGAAGG
DNA 2: CCTTCATTCTACGCTGTCAATCGCGGTGGCAGGTGCCTGTAGTTCCAGCTAGTTGGGAGC
Regarding B16, the values for the binding signal in series [1] and in series [2] were -0.32 PBM z-score against 500 random probes and 0.23 PBM z-score against 500 random probes, respectively.

B17: NRC3_random_hg19_320_o1 (dsDNA)
DNA 1: GCCACACTTGCAGAGGAGAAAGGAGTTTGGAAAGCCGCGATTGACAGCGTAGAATGAAGG
DNA 2: CCTTCATTCTACGCTGTCAATCGCGGCTTTCCAAACTCCTTTCTCCTCTGCAAGTGTGGC
As for B17, the binding signal in series [1] was -0.07 PBM z-score against 500 random probes; in series [2] it was -0.22 PBM z-score against 500 random probes; in series [4], 0.28 PBM z-score against 500 random probes.

B18: NRC3_wobSeed135_DR5_G10A_o1 (dsDNA)
DNA 1: GCCGAACTAAGTCATTGACAGGACAGTGAATAGTAAGCGATTGACAGCGTAGAATGAAGG
DNA 2: CCTTCATTCTACGCTGTCAATCGCTTACTATTCACTGTCCTGTCAATGACTTAGTTCGGC
For the molecule B18, the binding signal in series [1] is 0.2 PBM z-score against 500 random probes; in series [3], 0.48 PBM z-score against 500 random probes.

B19: NRC3_random_hg19_283_o1 (dsDNA)
DNA 1: GCTAGCTTACCTGGATCCACTTGGCCACTAGATTTGGCGATTGACAGCGTAGAATGAAGG
DNA 2: CCTTCATTCTACGCTGTCAATCGCCAAATCTAGTGGCCAAGTGGATCCAGGTAAGCTAGC
For B19, the binding signal in series [1] was -0.42 PBM z-score against 500 random probes.

B20: NRC3_wobSeed22_DR0_G13C_o1 (dsDNA)
DNA 1: GCTTACCAAGGTCAAGGTCGTTGATCCCTCTGTAGAGCGATTGACAGCGTAGAATGAAGG
DNA 2: CCTTCATTCTACGCTGTCAATCGCTCTACAGAGGGATCAACGACCTTGACCTTGGTAAGC
As to B20, the values for the binding signal in series [1] and in series [4] were 5.5 PBM z-score against 500 random probes and 7.79 PBM z-score against 500 random probes, respectively.
